36 substances from US12559863B2, “Macrocyclic modulators of disease associated protein misfolding and aggregation” (RESQ BIOTECH, priority 2017, dated 2026) can be followed below.

The target of the experiment is T1, Aβ42-GFP (Homo sapiens, UniProt P05067).
T1 construct: a chimeric fusion of the human Aβ(1-42) peptide (Aβ42) with GFP; expressed in transfected cells; host or cells: E. coli BL21(DE3)
Briefly: High-throughput sequencing of pSICLOPPS vectors isolated after bacterial sorting for enhanced Aβ42-GFP fluorescence. The settings on record: for Reads/Total TXXXR reads (%): relative to total TXXXR reads; for Reads/Total pentapeptide reads (%): relative to total pentapeptide reads; for Reads/Total peptide reads (%): relative to total peptide reads. The method in brief: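 Peptide inserts recovered from repeatedly sorted high-GFP clones were sequenced on Ion Torrent, excluding stop-codon-containing reads. Sorting used BL21(DE3) cells carrying pETAβ42-GFP plus the tetra-, penta- and hexapeptide pSICLOPPS library. Peptide production was induced with 0.002% L-arabinose and the reporter with 0.1 mM IPTG at OD600 ~0.5, at 37° C.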

[1] abbreviates: after the second round of bacterial sorting.
The mark [2] stands for this setting: high-throughput sequencing of isolated pSICLOPPS-NuX1X2X3-X5 vectors after the second round of bacterial sorting for enhanced Aβ42-GFP fluorescence, selected cyclo-TXXXR pentapeptides.
Setting [3] is: after the second round of bacterial sorting for enhanced Aβ42-GFP fluorescence.
Where [4] appears, read: pSICLOPPS-NuX1X2X3-X5 vectors after the second round of bacterial sorting for enhanced Aβ42-GFP fluorescence.

As for AβC5-343 (TNLDR; head-to-tail cyclic), under setting [1], the “Reads/Total TXXXR reads (%)” value worked out at 0.007%, the “Reads/Total pentapeptide reads (%)” value was 0.003% and the “Reads/Total peptide reads (%)” value is on record as 0.003%. In addition, the Number of reads under setting [2] was found to be 125.

Take AβC5-344 (TTPGR; head-to-tail cyclic): under setting [1], the “Reads/Total TXXXR reads (%)” value is reported as 0.007%, the “Reads/Total pentapeptide reads (%)” value came to 0.003% and the “Reads/Total peptide reads (%)” value is on record as 0.003%. Moreover, under setting [2], the Number of reads worked out at 125.

With AβC5-348 (TTLTR; head-to-tail cyclic), under setting [1], the “Reads/Total TXXXR reads (%)” value was 0.006%, the “Reads/Total pentapeptide reads (%)” value was found to be 0.003% and the “Reads/Total peptide reads (%)” value is recorded as 0.003%. Moreover, the Number of reads under setting [2] amounted to 119.

On to AβC5-355 (TATVR; head-to-tail cyclic), for which, under setting [1], the “Reads/Total TXXXR reads (%)” value is 0.006%, the “Reads/Total pentapeptide reads (%)” value was 0.003% and the “Reads/Total peptide reads (%)” value is 0.003%. The Number of reads under setting [2] is 115.

For AβC5-359 (TAMWR; head-to-tail cyclic), under setting [1], the “Reads/Total TXXXR reads (%)” value worked out at 0.006%, the “Reads/Total pentapeptide reads (%)” value worked out at 0.003% and the “Reads/Total peptide reads (%)” value was determined as 0.002%. The Number of reads under setting [2] turned out to be 110.

In the case of AβC5-361 (TTKWR; head-to-tail cyclic), under setting [1], the “Reads/Total TXXXR reads (%)” value turned out to be 0.006%, the “Reads/Total pentapeptide reads (%)” value came out at 0.003% and the “Reads/Total peptide reads (%)” value was 0.002%. Also, the Number of reads under setting [2] worked out at 108.

Turning to AβC5-362 (TTWDR; head-to-tail cyclic), under setting [1], the “Reads/Total TXXXR reads (%)” value is given as 0.006%, the “Reads/Total pentapeptide reads (%)” value is listed as 0.003% and the “Reads/Total peptide reads (%)” value is given as 0.002%. Further, the Number of reads under setting [2] was 107.

In the case of AβC5-364 (TTMAR; head-to-tail cyclic), under setting [1], the “Reads/Total TXXXR reads (%)” value turned out to be 0.006%, the “Reads/Total pentapeptide reads (%)” value worked out at 0.003% and the “Reads/Total peptide reads (%)” value was determined as 0.002%. The Number of reads under setting [2] came to 106.

For AβC5-365 (TTGGR; head-to-tail cyclic), under setting [1], the “Reads/Total TXXXR reads (%)” value was 0.006%, the “Reads/Total pentapeptide reads (%)” value turned out to be 0.003% and the “Reads/Total peptide reads (%)” value is reported as 0.002%. Moreover, the Number of reads under setting [2] is on record as 106.

Consider AβC5-366 (TTMVR; head-to-tail cyclic), for which, under setting [1], the “Reads/Total TXXXR reads (%)” value was 0.006%, the “Reads/Total pentapeptide reads (%)” value came to 0.003% and the “Reads/Total peptide reads (%)” value worked out at 0.002%. Besides, the Number of reads under setting [2] was 105.

As to AβC5-375 (TNLAR; head-to-tail cyclic), under setting [1], the “Reads/Total TXXXR reads (%)” value worked out at 0.005%, the “Reads/Total pentapeptide reads (%)” value is on record as 0.002% and the “Reads/Total peptide reads (%)” value turned out to be 0.002%. Under setting [2], the Number of reads is 97.

On to AβC5-376 (TIRDR; head-to-tail cyclic), for which, under setting [1], the “Reads/Total TXXXR reads (%)” value was 0.005%, the “Reads/Total pentapeptide reads (%)” value was 0.002% and the “Reads/Total peptide reads (%)” value came to 0.002%. Further, the Number of reads under setting [2] was 96.

AβC5-378 (TTTGR; head-to-tail cyclic): under setting [1], the “Reads/Total TXXXR reads (%)” value worked out at 0.005%, the “Reads/Total pentapeptide reads (%)” value was 0.002% and the “Reads/Total peptide reads (%)” value was 0.002%. Besides, the Number of reads under setting [2] came to 96.

As to AβC5-379 (TRLGR; head-to-tail cyclic), under setting [1], the “Reads/Total TXXXR reads (%)” value was found to be 0.005%, the “Reads/Total pentapeptide reads (%)” value is reported as 0.002% and the “Reads/Total peptide reads (%)” value is 0.002%. Besides, the Number of reads under setting [2] came to 95.

As for AβC5-381 (TTHTR; head-to-tail cyclic), under setting [1], the “Reads/Total TXXXR reads (%)” value came to 0.005%, the “Reads/Total pentapeptide reads (%)” value is listed as 0.002% and the “Reads/Total peptide reads (%)” value was found to be 0.002%. The Number of reads under setting [2] was determined as 93.

Turning to AβC5-382 (TTITR; head-to-tail cyclic), under setting [1], the “Reads/Total TXXXR reads (%)” value amounted to 0.005%, the “Reads/Total pentapeptide reads (%)” value turned out to be 0.002% and the “Reads/Total peptide reads (%)” value is reported as 0.002%. Besides, under setting [2], the Number of reads is recorded as 92.

Take AβC5-384 (TTYTR; head-to-tail cyclic): under setting [1], the “Reads/Total TXXXR reads (%)” value stood at 0.005%, the “Reads/Total pentapeptide reads (%)” value was determined as 0.002% and the “Reads/Total peptide reads (%)” value came out at 0.002%. In addition, the Number of reads under setting [2] was found to be 90.

Turning to AβC5-385 (TTLYR; head-to-tail cyclic), under setting [3], the “Reads/Total TXXXR reads (%)” value was determined as 0.005%, the “Reads/Total pentapeptide reads (%)” value is reported as 0.002% and the “Reads/Total peptide reads (%)” value stood at 0.002%. Under setting [4], the Number of reads came to 90.

Take AβC5-389 (THLDR; head-to-tail cyclic): under setting [3], the “Reads/Total TXXXR reads (%)” value was 0.005%, the “Reads/Total pentapeptide reads (%)” value is given as 0.002% and the “Reads/Total peptide reads (%)” value is given as 0.002%. For the same substance, under setting [4], the Number of reads is listed as 89.

For AβC5-391 (TLLIR; head-to-tail cyclic), under setting [3], the “Reads/Total TXXXR reads (%)” value turned out to be 0.005%, the “Reads/Total pentapeptide reads (%)” value worked out at 0.002% and the “Reads/Total peptide reads (%)” value is given as 0.002%. Further, the Number of reads under setting [4] was 88.

Regarding AβC5-392 (TTCDR; head-to-tail cyclic), under setting [3], the “Reads/Total TXXXR reads (%)” value was determined as 0.005%, the “Reads/Total pentapeptide reads (%)” value worked out at 0.002% and the “Reads/Total peptide reads (%)” value is recorded as 0.002%. The Number of reads under setting [4] is 87.

Consider AβC5-393 (TTGRR; head-to-tail cyclic), for which, under setting [3], the “Reads/Total TXXXR reads (%)” value is on record as 0.005%, the “Reads/Total pentapeptide reads (%)” value stood at 0.002% and the “Reads/Total peptide reads (%)” value came to 0.002%. In addition, under setting [4], the Number of reads was 87.

On to AβC5-394 (TTVSR; head-to-tail cyclic), for which, under setting [3], the “Reads/Total TXXXR reads (%)” value is 0.005%, the “Reads/Total pentapeptide reads (%)” value was found to be 0.002% and the “Reads/Total peptide reads (%)” value was determined as 0.002%. Besides, under setting [4], the Number of reads is reported as 86.

For the substance AβC5-395 (TTQHR; head-to-tail cyclic), under setting [3], the “Reads/Total TXXXR reads (%)” value was 0.004%, the “Reads/Total pentapeptide reads (%)” value stood at 0.002% and the “Reads/Total peptide reads (%)” value is listed as 0.002%. The Number of reads under setting [4] was determined as 85.

On to AβC5-396 (TTTPR; head-to-tail cyclic), for which, under setting [3], the “Reads/Total TXXXR reads (%)” value is reported as 0.004%, the “Reads/Total pentapeptide reads (%)” value is 0.002% and the “Reads/Total peptide reads (%)” value was determined as 0.002%. Also, under setting [4], the Number of reads was 84.

Turning to AβC5-399 (TAFAR; head-to-tail cyclic), under setting [3], the “Reads/Total TXXXR reads (%)” value amounted to 0.004%, the “Reads/Total pentapeptide reads (%)” value turned out to be 0.002% and the “Reads/Total peptide reads (%)” value is reported as 0.002%. Further, the Number of reads under setting [4] turned out to be 82.

On to AβC5-405 (TTSHR; head-to-tail cyclic), for which, under setting [3], the “Reads/Total TXXXR reads (%)” value stood at 0.004%, the “Reads/Total pentapeptide reads (%)” value turned out to be 0.002% and the “Reads/Total peptide reads (%)” value is on record as 0.002%. Moreover, under setting [4], the Number of reads was 78.

In the case of AβC5-410 (TVLGR; cyclic pentapeptide), under setting [3], the “Reads/Total TXXXR reads (%)” value was determined as 0.004%, the “Reads/Total pentapeptide reads (%)” value amounted to 0.002% and the “Reads/Total peptide reads (%)” value is given as 0.002%. Further, the Number of reads under setting [4] came to 76.

Regarding AβC5-411 (TTQRR; cyclic pentapeptide), under setting [3], the “Reads/Total TXXXR reads (%)” value was found to be 0.004%, the “Reads/Total pentapeptide reads (%)” value amounted to 0.002% and the “Reads/Total peptide reads (%)” value is listed as 0.002%. For the same substance, the Number of reads under setting [4] was determined as 75.

For AβC5-413 (TSHAR; cyclic pentapeptide), under setting [3], the “Reads/Total TXXXR reads (%)” value is 0.004%, the “Reads/Total pentapeptide reads (%)” value is given as 0.002% and the “Reads/Total peptide reads (%)” value was determined as 0.002%. Besides, under setting [4], the Number of reads came out at 74.

In the case of AβC5-415 (TTTCR; cyclic pentapeptide), under setting [3], the “Reads/Total TXXXR reads (%)” value is reported as 0.004%, the “Reads/Total pentapeptide reads (%)” value is 0.002% and the “Reads/Total peptide reads (%)” value was determined as 0.002%. Besides, under setting [4], the Number of reads worked out at 74.

For the substance AβC5-422 (TAWRR; cyclic pentapeptide), under setting [3], the “Reads/Total TXXXR reads (%)” value is given as 0.004%, the “Reads/Total pentapeptide reads (%)” value is on record as 0.002% and the “Reads/Total peptide reads (%)” value was determined as 0.002%. Moreover, under setting [4], the Number of reads came out at 72.

AβC5-428 (TTCGR; cyclic pentapeptide): under setting [3], the “Reads/Total TXXXR reads (%)” value is 0.004%, the “Reads/Total pentapeptide reads (%)” value was found to be 0.002% and the “Reads/Total peptide reads (%)” value amounted to 0.002%. For the same substance, the Number of reads under setting [4] was determined as 69.

As to AβC5-434 (TTSGR; cyclic pentapeptide), under setting [3], the “Reads/Total TXXXR reads (%)” value is 0.003%, the “Reads/Total pentapeptide reads (%)” value came out at 0.002% and the “Reads/Total peptide reads (%)” value amounted to 0.001%. The Number of reads under setting [4] is on record as 65.

For the substance AβC5-438 (TTTSR; cyclic pentapeptide), under setting [3], the “Reads/Total TXXXR reads (%)” value is reported as 0.003%, the “Reads/Total pentapeptide reads (%)” value came out at 0.002% and the “Reads/Total peptide reads (%)” value stood at 0.001%. Under setting [4], the Number of reads was 62.

As for AβC5-440 (TATGR; cyclic pentapeptide), under setting [3], the “Reads/Total TXXXR reads (%)” value is 0.003%, the “Reads/Total pentapeptide reads (%)” value worked out at 0.002% and the “Reads/Total peptide reads (%)” value came out at 0.001%. Under setting [4], the Number of reads amounted to 61.
